The test addresses human mpl receptor (c-Mpl, the TPO receptor) (human) (UniProt P40238). Kind of test: cell-based or functional assay.

The molecule IEGPTLRQWLAARAGGGGGIEGPTLRQWLAARA [TMP-(G)n-TMP, n = 5 (peptide 6)] returned an increase in potency as compared to the monomer (cell proliferation assay) greater than 1000 fold.

In turn, IEGPTLRQWLAARAGGGGGGGGIEGPTLRQWLAARA [TMP-(G)n-TMP, n = 8 (peptide 9)] registered an increase in potency as compared to the monomer (cell proliferation assay) greater than 1000 fold.

As for IEGPTLRQWLAARAGGGGGGGGGGIEGPTLRQWLAARA [TMP-(G)n-TMP, n = 10 (peptide 11)], the increase in potency as compared to the monomer (cell proliferation assay) is greater than 1000 fold.

Turning to IEGPTLRQWLAARAIEGPTLRQWLAARA [TMP-(G)n-TMP, n = 0 (peptide 1)], the increase in potency as compared to the monomer (cell proliferation assay) was greater than 1000 fold.

Molecule IEGPTLRQWLAARAGGGGIEGPTLRQWLAARA [TMP-(G)n-TMP, n = 4 (peptide 5)] returned an increase in potency as compared to the monomer (cell proliferation assay) greater than 1000 fold.

For IEGPTLRQWLAARAGPNGIEGPTLRQWLAARA [TMP-GPNG-TMP (peptide 13)], the loss of activity against the equivalent GGGG-linked analog (cell proliferation assay) is greater than 10 fold and the potency as compared to the monomer (cell proliferation assay) turned out to be 100 fold.

IEGPTLRQWLAARAGIEGPTLRQWLAARA [TMP-(G)n-TMP, n = 1 (peptide 2)]: the increase in potency as compared to the monomer (cell proliferation assay) is greater than 1000 fold.

On to IEGPTLRQWLAARAGGGGGGIEGPTLRQWLAARA [TMP-(G)n-TMP, n = 6 (peptide 7)], for which the increase in potency as compared to the monomer (cell proliferation assay) is greater than 1000 fold.

Molecule IEGPTLRQWLAARAGGGGGGGGGGGGGGIEGPTLRQWLAARA [TMP-(G)n-TMP, n = 14 (peptide 12)] displayed an increase in potency as compared to the monomer (cell proliferation assay) greater than 1000 fold.

The molecule IEGPTLRQWLAARAGGIEGPTLRQWLAARA [TMP-(G)n-TMP, n = 2 (peptide 3)] displayed an increase in potency as compared to the monomer (cell proliferation assay) greater than 1000 fold.

IEGPTLRQWLAARAGGGIEGPTLRQWLAARA [TMP-(G)n-TMP, n = 3 (peptide 4)]: the increase in potency as compared to the monomer (cell proliferation assay) was greater than 1000 fold.

Regarding IEGPTLRQWLAARAGGGGGGGIEGPTLRQWLAARA [TMP-(G)n-TMP, n = 7 (peptide 8)], the increase in potency as compared to the monomer (cell proliferation assay) was greater than 1000 fold.

On to IEGPTLRQWLAARAGGGGGGGGGIEGPTLRQWLAARA [TMP-(G)n-TMP, n = 9 (peptide 10)], for which the increase in potency as compared to the monomer (cell proliferation assay) was greater than 1000 fold.
